# Test results as given in patent publication US20050147610A1 (AbbVie / Abbott, published 2005).
# Where a chain is given by its changes, count along the chain named. Values joined by “and” are separate entries in the source; they are usually repeats but may differ in a detail not shown here. Identical values can stand only once. Like-named read-outs stand apart in the source and are kept apart here.
# B1: 2.5.1 (antibody, V domains shown)
# VH: ZVQLVQSGTEVKKPGESLKISCKGSGYTVTSYWIGWVRQMPGKGLEWMGFIYPGDSETRYSPTFQGQVTISADKSFNTAFLQWSSLKASDTAMYYCARVGSGWYPYTFDIWGQGTMVTVSS
# VL: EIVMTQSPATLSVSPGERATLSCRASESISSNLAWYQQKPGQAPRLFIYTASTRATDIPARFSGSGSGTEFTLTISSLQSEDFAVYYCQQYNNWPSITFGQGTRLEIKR
# B2: 2.13.1 (antibody, V domains shown)
# VH: ZVQLQESGPGLVTPSQTLSLTCTVSGGSISSGGHYWTWIRQHPGKGLEWIGYIYYSGSTYYNPSLKSRLTISVDTSKNQFSLKLSSVAAADTAVYYCARDRGGSGSYWDYWGQGTLVTVSS
# VL: EIVLTQSPGTLSLSPGERATLSCRGSRSVSSGYLAWYQQKPGQAPRLLIYGVSIRATGIPDRFSGSGSGTDFTLTISRLEPEDFAVYYCQQYHGSPLTFGGGTKVEIKR
# B3: 215 (antibody, V domains shown)
# VH: ZVQLQESGPGLVKPSQTLSLTCTVSGGSINSGDYYWSWIRQHPGKGLEWIGHISYRGTTYYNPSLKSRVTISVDTSKNQFSLKLSSVTAADTAVYCCARDRGGGFFDLWGRGTLVTVSS
# VL: B2 VL with G25A, V29L, V52A, G69A, H93N, G94Y, K104R, K108N
# B4: 435 (antibody, V domains shown)
# VH: ZLQLQESGPGLVKPSETLSLTCTVSGGSIDSRIYYWGWIRQPPGKGLEWIGSIYYRGSTYYNPSLKSRVTISVDTPKNQFSLKLNSVTAADTAVYYCAREDSSAWVFDYWGQGTLATVSS
# VL: EIVLTQSPGTLSLSPGERATLSCRASQSVRNNYLNWYQQKPGQAPRLLIYGAFSRATGIPDRFSGSGSGTDFTLTISSLEPEDFVVYYCQQYGNSIDSFGQGTKLEINR
# B5: 413 (antibody, V domains shown)
# VH: ZTQLQESGPGLVKPSETLSLTCTVSGGSISSRVYYWGWIRQPPGKGLEWIGSIYYSGSTYYSPSLKSRVTISVDTSKNQFSLKLSSVTAADTAIYYCAREDSSAWVFEHWGQGTLVTVSS
# VL: EIVLTQSPDTLSLSPGERATLSCRASQILSRNYLAWYQQKPGQAPRLLIYGISIRATGIPDRFSGSGSGADFTLTINRLEPEDFAVYYCQHYDNSLCSFGQGTKLEVKR
# B6: 351 (antibody, V domains shown)
# VH: ZVQLVESGGGVVQPGRSLRLSCAASGFTFSHYGMHWVRQAPGKGLEWVAVISYDGRNKYYVDSVKGRFTISRDNSKNTLYLQMNSLRAEDTAVFYCAREKGGSGWPPFYYYYGMDVWGQGTTVTVSS
# VL: DIVMTQTPLSLSVTPGQPASISCKSSQNLLYSDGETYLCWYLQKPGQPPQLLIYEVSNRFSGVPERFSGSGSGTDFTLKISRVEAEDVGIYYCMQNVQLPLTFGGGTRVEIKR
# B7: 2.13.1(E)wtg1 (antibody, V domains shown)
# VH: B2 VH with Z1E
# VL: B2 VL
# B8: IL-18BP-Fc (Fc fusion, UniProt O95998 31-194, looked up, not shown: a dimerising Fc or GST)
# chain: TPVSQTTTAATASVRSTKDPCPSQPPVFPAAKQCPALEVTWPEVEVPLNGTLSLSCVACSRFPNFSILYWLGNGSFIEHLPGRLWEGSTSRERGSTGTQLCKALVLEQLTPALHSTNFSCVLVDPEQVVQRHVVLAQLWAGLRATLPPTQEALPSSHSSPQQQG
# Key:
# [1] = target: T1, NEM-huIL-18 (recombinant mature human IL-18 treated with N-ethyl maleiamide) (human, UniProt Q14116 37-193, cysteines protected with N-ethyl maleiamide (NEM)); experiment: cell-based or functional assay
# [2] = target: T1, NEM-huIL-18 (recombinant mature human …); experiment: cell-based or functional assay; remark: listed apart in the source
# [3] = target: T2, natural human IL-18 (endogenous, human whole blood) (human, UniProt Q14116 37-193); experiment: cell-based or functional assay
# [4] = target: T1, NEM-huIL-18 (recombinant mature human …); experiment: Biacore, NEM-cys protected rhuIL-18
# 125I labeled rhu-IL-18 [5] = target: T3, 125I labeled rhu-IL-18 (human, UniProt Q14116 37-193, NEM-treated cysteines; 125I label on lysine residues); experiment: RBA: inhibition of 125I-rhu-IL-18 binding to IL-18Rαβ on KG-1 cells
# [6] = target: recombinant mature human IL-18 (preparation not specified) (human, UniProt Q14116 37-193); experiment: cell-based or functional assay
# [7] = target: T2, natural human IL-18 (endogenous, human …); experiment: cell-based or functional assay; remark: listed apart in the source
# 125I labeled rhu-IL-18 [8] = target: T3, 125I labeled rhu-IL-18; experiment: RBA: inhibition of 125I-rhu-IL-18 binding to IL-18Rαβ on KG-1 cells; remark: listed apart in the source
binder,measurement,setting,value
B1,"KG-1 Assays (IC50, M), NEM-rhuIL-18",[1],3e-10 M and 4e-10 M
B2,"KG-1 Assays (IC50, M), NEM-rhuIL-18",[1],2e-10 M and 1e-10 M and 7e-11 M
B3,"KG-1 Assays (IC50, M), NEM-rhuIL-18",[1],1e-10 M and 3e-10 M
B4,"KG-1 Assays (IC50, M), NEM-rhuIL-18",[1],8e-10 M and 7e-10 M and 4e-10 M
B5,"KG-1 Assays (IC50, M), NEM-rhuIL-18",[1],1e-09 M and 7e-10 M
B6,"KG-1 Assays (IC50, M), NEM-rhuIL-18",[1],2e-10 M
B7,"KG-1 (IC50, nM)",[2],0.12 nM
same,"WBA (IC50, nM)",[3],2 nM
same,Kd,[4],0.2 nM
same,IC50,125I labeled rhu-IL-18 [5],0.2 nM
B8,"KG-1, Neutralization Potency in vitro (IC50, nM)",[6],0.03 nM
same,"WBA, Neutralization Potency in vitro (IC50, nM)",[7],5.7 nM
same,IC50,125I labeled rhu-IL-18 [8],1 nM
